The target in assay [1] is Factor VIIIa (recombinant FVIII, Kogenate FS, activated with alpha-thrombin) (UniProt P00451). The assay is described as follows: apparent KD (KD-app): FX activation rate (Spectrafluor FXa fluorescence) vs FVIIIa titration, PC/PS vesicles, Ca2+; indirect functional assay.
Assay [2] has the same target. The assay is described as follows: functional KD-app: FVIIIa titrated (0-400 nM) on 2 pM FIXa, PC/PS vesicles, 500 nM FX, fluorogenic FXa substrate.
Assay [3] has as its target plasma purified human AT-III (antithrombin III), in complex with low molecular weight heparin (human) (UniProt P01008). The assay is described as follows: K0.5: AT-III conc. for 50% inhibition of FIXa cleavage of Pefafluor FIXa; AT-III/LMWH, 1 uM LMWH, 1 min.

We go through 60 substances from patent US20210230570A1.

What is called IC50 is the concentration at which inhibition is half-maximal.

Sequence of Factor VIIIa (recombinant FVIII, Kogenate FS, activated with alpha-thrombin) (P00451 20-391, chain 1 of 3): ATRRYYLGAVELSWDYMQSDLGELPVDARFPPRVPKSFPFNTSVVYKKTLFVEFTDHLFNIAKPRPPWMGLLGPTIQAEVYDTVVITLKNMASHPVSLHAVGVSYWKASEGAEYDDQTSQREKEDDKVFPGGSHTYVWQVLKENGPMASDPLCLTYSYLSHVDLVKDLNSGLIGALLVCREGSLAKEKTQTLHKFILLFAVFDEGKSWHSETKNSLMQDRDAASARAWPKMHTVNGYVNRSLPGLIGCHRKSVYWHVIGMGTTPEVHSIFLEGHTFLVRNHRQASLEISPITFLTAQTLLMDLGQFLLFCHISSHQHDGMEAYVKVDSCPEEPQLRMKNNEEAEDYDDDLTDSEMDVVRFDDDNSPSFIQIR
Sequence of Factor VIIIa (recombinant FVIII, Kogenate FS, activated with alpha-thrombin) (P00451 392-759, chain 2 of 3): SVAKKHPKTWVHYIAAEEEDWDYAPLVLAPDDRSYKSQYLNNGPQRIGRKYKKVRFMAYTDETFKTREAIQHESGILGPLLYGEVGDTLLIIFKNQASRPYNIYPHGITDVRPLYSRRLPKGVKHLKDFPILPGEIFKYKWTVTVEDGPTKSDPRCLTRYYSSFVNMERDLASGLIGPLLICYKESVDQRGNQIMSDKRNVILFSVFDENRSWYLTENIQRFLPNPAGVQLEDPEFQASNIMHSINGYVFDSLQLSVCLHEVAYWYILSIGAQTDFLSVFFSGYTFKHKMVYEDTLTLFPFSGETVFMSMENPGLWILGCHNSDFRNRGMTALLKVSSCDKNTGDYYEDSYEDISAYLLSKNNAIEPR
Sequence of Factor VIIIa (recombinant FVIII, Kogenate FS, activated with alpha-thrombin) (P00451 1709-2351, chain 3 of 3): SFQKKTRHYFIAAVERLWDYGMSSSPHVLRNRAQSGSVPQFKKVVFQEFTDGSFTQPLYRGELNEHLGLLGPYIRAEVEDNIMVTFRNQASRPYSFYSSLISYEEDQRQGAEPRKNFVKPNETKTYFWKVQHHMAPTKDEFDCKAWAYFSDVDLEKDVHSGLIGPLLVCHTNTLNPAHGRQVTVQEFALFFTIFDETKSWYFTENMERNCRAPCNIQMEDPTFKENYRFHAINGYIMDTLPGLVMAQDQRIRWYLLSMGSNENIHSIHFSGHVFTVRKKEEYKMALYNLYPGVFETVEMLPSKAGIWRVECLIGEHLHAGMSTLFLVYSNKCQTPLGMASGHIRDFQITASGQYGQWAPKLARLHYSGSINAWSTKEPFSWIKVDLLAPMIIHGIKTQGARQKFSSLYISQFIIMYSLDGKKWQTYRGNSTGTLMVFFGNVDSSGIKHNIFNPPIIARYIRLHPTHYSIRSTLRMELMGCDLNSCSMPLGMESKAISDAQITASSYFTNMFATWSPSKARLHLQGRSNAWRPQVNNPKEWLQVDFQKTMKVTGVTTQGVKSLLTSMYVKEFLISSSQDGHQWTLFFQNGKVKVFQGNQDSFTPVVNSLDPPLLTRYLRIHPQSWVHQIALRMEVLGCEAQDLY
Sequence of plasma purified human AT-III (antithrombin III), in complex with low molecular weight heparin (human) (P01008 33-464, one chain of several): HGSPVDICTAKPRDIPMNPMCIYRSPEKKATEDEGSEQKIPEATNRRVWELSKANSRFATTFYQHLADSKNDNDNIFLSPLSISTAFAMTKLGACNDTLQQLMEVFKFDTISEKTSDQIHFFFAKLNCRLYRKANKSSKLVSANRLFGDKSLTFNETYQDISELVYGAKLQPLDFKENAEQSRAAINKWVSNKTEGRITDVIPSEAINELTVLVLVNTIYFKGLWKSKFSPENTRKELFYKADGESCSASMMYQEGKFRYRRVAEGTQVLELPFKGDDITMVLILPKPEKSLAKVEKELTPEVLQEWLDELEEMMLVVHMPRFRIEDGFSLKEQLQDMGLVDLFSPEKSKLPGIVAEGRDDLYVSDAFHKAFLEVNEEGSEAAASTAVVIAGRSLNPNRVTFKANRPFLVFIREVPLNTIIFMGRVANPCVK

In the case of “FIXa variant A204M (from UniProt P00740 47-191; P00740 227-461) (enzyme)”, the Kd in assay [1] was 60.6 nM. As for “FIXa-R318Y/R338E/T343R/E410N (from UniProt P00740 47-191; P00740 227-461) (enzyme)”, the Kd in assay [2] came out at 6.1 nM.

Regarding “FIXa variant R318Y/R338E/E410N (from UniProt P00740 47-191; P00740 227-461) (enzyme)”, in assay [1], the Kd was 7.7 nM. “FIXa-Y155F/K247N/N249S/R338E/E410N (from UniProt P00740 47-191; P00740 227-461) (enzyme)”: in assay [2], the Kd worked out at 24.9 nM.

Consider “FIXa variant D104N/K106S/Y155F/R318Y/R338E/R403E/E410N (from UniProt P00740 47-191; P00740 227-461) (enzyme)”, for which the Kd in assay [1] was 61.6 nM.

With “FIXa-R318Y/R338E/T343R/R403E/E410S (from UniProt P00740 47-191; P00740 227-461) (enzyme)”, the Kd in assay [2] was found to be 23.2 nM. Still for that read-out and setting: as for “FIXa-Y155F/R338E/T343R/R403E (from UniProt P00740 47-191; P00740 227-461) (enzyme)”, the figure is 72.1 nM. As to “FIXa variant R318Y/R338E/R403E (from UniProt P00740 47-191; P00740 227-461) (enzyme)”, the Kd in assay [1] amounted to 340 nM. For “FIXa-K228N/R318Y/R338E/T343R/R403E/E410N (from UniProt P00740 47-191; P00740 227-461) (enzyme)”, in assay [2], the Kd amounted to 17.5 nM. For “BeneFIX Coagulation FIX (T148A), activated (FIXa) (from UniProt P00740 47-191; P00740 227-461) (enzyme)”, the Kd in assay [1] worked out at 90.2 nM. As for “FIXa-Y155F/R338E/T343R/E410N (from UniProt P00740 47-191; P00740 227-461) (enzyme)”, in assay [2], the Kd is 8.5 nM. In the case of “FIXa-Y155F/R338E/T343R/R403E/E410N (from UniProt P00740 47-191; P00740 227-461) (enzyme)”, in assay [2], the Kd came to 28.5 nM. “FIXa variant D104N/K106S/R318Y/R338E/E410N (from UniProt P00740 47-191; P00740 227-461) (enzyme)”: the Kd in assay [1] was determined as 12.4 nM. With “FIXa-K228N/K247N/N249S/R318Y/R338E/T343R/E410N (from UniProt P00740 47-191; P00740 227-461) (enzyme)”, the Kd in assay [2] came out at 7.8 nM. On the same count and under the same terms, as for “FIXa-Y155F/K247N/N249S/R318Y/R338E/T343R/R403E/E410N (from UniProt P00740 47-191; P00740 227-461) (enzyme)”, the figure is 15.3 nM. “FIXa variant R403E/E410N (from UniProt P00740 47-191; P00740 227-461) (enzyme)”: the Kd in assay [1] stood at 910 nM. Same read-out and setting: as for “FIXa variant D203Y (from UniProt P00740 47-191; P00740 227-461) (enzyme)”, the figure is 77.4 nM; as for “FIXa variant R338E/R403E (from UniProt P00740 47-191; P00740 227-461) (enzyme)”, 183 nM; as for “FIXa variant E239N (from UniProt P00740 47-191; P00740 227-461) (enzyme)”, 77.3 nM. “Plasma Purified FIXa (from UniProt P00740 47-191; P00740 227-461) (enzyme)”: in assay [3], the half-inhibitory concentration (IC50) amounted to 20.2 nM. This lies in the double-digit nanomolar range. On to “FIXa-R338E/T343R/E410N (from UniProt P00740 47-191; P00740 227-461) (enzyme)”, for which the Kd in assay [2] stood at 7.5 nM. With “FIXa variant S319N/L321S (from UniProt P00740 47-191; P00740 227-461) (enzyme)”, in assay [1], the Kd turned out to be 52.4 nM. As for “FIXa variant R312L (from UniProt P00740 47-191; P00740 227-461) (enzyme)”, the Kd in assay [1] was found to be 68.9 nM.

As to “FIXa-R318Y/T343R/R403E/E410N (from UniProt P00740 47-191; P00740 227-461) (enzyme)”, the Kd in assay [2] was determined as 84.1 nM. On to “FIXa variant A262S (from UniProt P00740 47-191; P00740 227-461) (enzyme)”, for which the Kd in assay [1] came out at 94.1 nM.

In the case of “FIXa-Y155F/R318Y/T343R/E410N (from UniProt P00740 47-191; P00740 227-461) (enzyme)”, in assay [2], the Kd came out at 38 nM. Regarding “FIXa variant R312A (from UniProt P00740 47-191; P00740 227-461) (enzyme)”, the Kd in assay [1] turned out to be 52.9 nM.

“FIXa variant R318Y (from UniProt P00740 47-191; P00740 227-461) (enzyme)”: the Kd in assay [1] came out at 192 nM. Still for that read-out and setting: as for “FIXa variant T241N/H243S (from UniProt P00740 47-191; P00740 227-461) (enzyme)”, the figure is 75.5 nM.

Consider “Catalyst Biosciences WT FIXa (recombinant wild-type FIXa) (from UniProt P00740 47-191; P00740 227-461) (enzyme)”, for which the Kd in assay [1] is 95.5 nM. On the same count and under the same terms, as for “FIXa variant N346D (from UniProt P00740 47-191; P00740 227-461) (enzyme)”, the figure is 126 nM; as for “FIXa variant R318Y/R338E/R403E/E410N (from UniProt P00740 47-191; P00740 227-461) (enzyme)”, 47 nM.

For “FIXa variant R318E (from UniProt P00740 47-191; P00740 227-461) (enzyme)”, in assay [1], the Kd came to 67 nM. On the same count and under the same terms, as for “FIXa variant T148A (from UniProt P00740 47-191; P00740 227-461) (enzyme)”, the figure is 79.7 nM.

Regarding “FIXa variant R312Q (from UniProt P00740 47-191; P00740 227-461) (enzyme)”, in assay [1], the Kd was 45.2 nM. Same read-out and setting: as for “FIXa variant V202Y (from UniProt P00740 47-191; P00740 227-461) (enzyme)”, the figure is 61.5 nM. Turning to “FIXa-Y155F/K247N/N249S/R338E/T343R (from UniProt P00740 47-191; P00740 227-461) (enzyme)”, the Kd in assay [2] was 15.4 nM. Still for that read-out and setting: as for “FIXa-R318Y/R338E/T343R (from UniProt P00740 47-191; P00740 227-461) (enzyme)”, the figure is 9.8 nM. For “FIXa variant D104N/K106S/I251S (from UniProt P00740 47-191; P00740 227-461) (enzyme)”, the Kd in assay [1] stood at 306 nM. Same read-out and setting: as for “FIXa variant K293A (from UniProt P00740 47-191; P00740 227-461) (enzyme)”, the figure is 86.6 nM. For the substance “FIXa-Y155F/R318Y/R338E/T343R/E410N (from UniProt P00740 47-191; P00740 227-461) (enzyme)”, in assay [2], the Kd worked out at 7.4 nM. Consider “FIXa variant E410N (from UniProt P00740 47-191; P00740 227-461) (enzyme)”, for which the Kd in assay [1] is 74.2 nM. For the substance “FIXa-Y155F/K247N/N249S/R318Y/R338E/T343R/E410N (from UniProt P00740 47-191; P00740 227-461) (enzyme)”, the Kd in assay [2] was determined as 13.9 nM. Still for that read-out and setting: as for “FIXa-Y155F/K228N/K247N/N249S/R318Y/R338E/T343R/R403E/E410N (from UniProt P00740 47-191; P00740 227-461) (enzyme)”, the figure is 37 nM. As to “FIXa variant K400A (from UniProt P00740 47-191; P00740 227-461) (enzyme)”, the Kd in assay [1] stood at 98.9 nM. Still for that read-out and setting: as for “FIXa variant K400A/R403A (from UniProt P00740 47-191; P00740 227-461) (enzyme)”, the figure is 130 nM.

As to “FIXa-K247N/N249S/R318Y/R338E/T343R (from UniProt P00740 47-191; P00740 227-461) (enzyme)”, the Kd in assay [2] came out at 14.7 nM. As for “FIXa variant K400E/R403E (from UniProt P00740 47-191; P00740 227-461) (enzyme)”, the Kd in assay [1] worked out at 298 nM. With “FIXa variant H257E (from UniProt P00740 47-191; P00740 227-461) (enzyme)”, the Kd in assay [1] turned out to be 81.3 nM. Still for that read-out and setting: as for “FIXa variant R338E/E410N (from UniProt P00740 47-191; P00740 227-461) (enzyme)”, the figure is 4.1 nM. Take “FIXa-R338E/T343R/R403E (from UniProt P00740 47-191; P00740 227-461) (enzyme)”: the Kd in assay [2] worked out at 55 nM. In the case of “FIXa variant K316N (from UniProt P00740 47-191; P00740 227-461) (enzyme)”, the Kd in assay [1] was determined as 66.4 nM.

Regarding “FIXa variant R403E (from UniProt P00740 47-191; P00740 227-461) (enzyme)”, the Kd in assay [1] came to 654 nM. Same read-out and setting: as for “FIXa variant R338E (from UniProt P00740 47-191; P00740 227-461) (enzyme)”, the figure is 43 nM. On to “FIXa-Y155F/R318Y/R338E/T343R (from UniProt P00740 47-191; P00740 227-461) (enzyme)”, for which, in assay [2], the Kd is 8.4 nM. As to “FIXa variant R312Y (from UniProt P00740 47-191; P00740 227-461) (enzyme)”, in assay [1], the Kd turned out to be 85.2 nM. On the same count and under the same terms, as for “FIXa variant E410S (from UniProt P00740 47-191; P00740 227-461) (enzyme)”, the figure is 99.6 nM.

For the substance “FIXa-R338E/T343R/R403E/E410N (from UniProt P00740 47-191; P00740 227-461) (enzyme)”, the Kd in assay [2] was found to be 29.4 nM. On to “FIXa variant R338E/R403E/E410N (from UniProt P00740 47-191; P00740 227-461) (enzyme)”, for which, in assay [1], the Kd was determined as 54.9 nM. As for “FIXa-K228N/K247N/N249S/R318Y/R338E/T343R/R403E/E410N (from UniProt P00740 47-191; P00740 227-461) (enzyme)”, the Kd in assay [2] was determined as 29.1 nM.
